The target of the assay is T1, GFP-SOX7 (UniProt Q9BT81 1-388).
T1 sequence: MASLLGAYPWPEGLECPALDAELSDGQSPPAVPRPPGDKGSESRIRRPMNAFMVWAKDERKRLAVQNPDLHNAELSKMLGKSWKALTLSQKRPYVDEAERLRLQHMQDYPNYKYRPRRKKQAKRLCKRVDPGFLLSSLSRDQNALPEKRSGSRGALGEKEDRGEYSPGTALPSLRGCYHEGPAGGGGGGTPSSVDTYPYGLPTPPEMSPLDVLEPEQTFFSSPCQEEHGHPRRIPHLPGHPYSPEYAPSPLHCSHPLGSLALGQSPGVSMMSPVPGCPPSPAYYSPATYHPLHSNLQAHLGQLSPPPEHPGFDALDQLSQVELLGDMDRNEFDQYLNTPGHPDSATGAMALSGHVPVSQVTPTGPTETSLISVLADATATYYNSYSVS
As to the kind of experiment: single-molecule two-colour coincidence spectroscopy.

B1: HEY1-Cherry (natural protein)
chain: MKRAHPEYSSSDSELDETIEVEKESADENGNLSSALGSMSPTTSSQILARKRRRGIIEKRRRDRINNSLSELRRLVPSAFEKQGSAKLEKAEILQMTVDHLKMLHTAGGKGYFDAHALAMDYRSLGFRECLAEVARYLSIIEGLDASDPLRVRLVSHLNNYASQREAASGAHAGLGHIPWGTVFGHHPHIAHPLLLPQNGHGNAGTTASPTEPHHQGRLGSAHPEAPALRAPPSGSLGPVLPVVTSASKLSPPLLSSVASLSAFPFSFGSFHLLSPNALSPSAPTQAANLGKPYRPWGTEIGAF
Turning to B1, the coincidence ratio came to 0.66.

The values above are taken from paper PMC9975944 (The EMBO Journal, 2023).
